Measured values taken from patent publication US6861578B1, “Method for plant protection against insects or nematodes by transformation with a nucleic acid encoding equistatin” (Plant Research International B.V., priority 1997, dated 2005).

Tests used:
[1] = target: T1, papain (Carica papaya, UniProt P00784); assay: Stoichiometry and inhibition constant of recombinant equistatin with papain (Z-Phe-Arg-pNA, microtiterplate); type: biochemical
T1 sequence (P00784 134-345): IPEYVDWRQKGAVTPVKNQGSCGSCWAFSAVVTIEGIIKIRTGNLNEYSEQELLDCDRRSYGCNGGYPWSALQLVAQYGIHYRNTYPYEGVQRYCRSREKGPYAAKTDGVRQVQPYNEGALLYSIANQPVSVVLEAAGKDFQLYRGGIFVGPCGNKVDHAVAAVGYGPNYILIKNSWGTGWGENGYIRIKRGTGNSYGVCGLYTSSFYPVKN
Protocol: In a microtiterplate 20 μl papain solution (a fresh solution of 1 mg/ml (Sigma) in MES buffer titrated with E-64 to determine the active fraction, usually 17%) is combined with 0-80 μl of known protein concentration. MES buffer (50 mM MES, pH 6.5; 0.6 mg/ml L-cysteine; 1 mg/ml BSA fraction V) is added to a final volume of 150 μl. The mixture is incubated for 30 min at room temperature and subsequently 50 μl of substrate solution (60 μl of 15 mg/ml Z-Phe-Arg-pNA dissolved in methanol is diluted in 940 μl MES buffer before use). The plate is immediately placed in the nicrotiterplate reader and measured at 405 nm. Readings up to an OD600 of 0.3 are linear. Rates of change are used to determine the activity with increasing amounts of inhibitor. Results are graphically represented and at stoichiometric concentrations the amount of dissociated complex is determined to determine the apparent equilibrium dissociation constant (Ki). […] The apparent equilibrium dissociation constant for papain was estimated to be 0.6 nM in agreement with the data published for the purified protein (Lenarcic et al. (1997) J. Biol. Chem. 272: 13899-13903.

[2] = system: trypsin; assay: Screen of equistatin against serine proteinase trypsin; limited proteolysis; type: biochemical; conditions: screened against cathepsin D and trypsin
Protocol: (§1) Equistatin was isolated from sea anemone A. equina by a procedure that was described previously utilizing its inhibitory activity toward cysteine proteinase, papain (Lenarcic et al. (1997) J. Biol. Chem. 272: 13899). Besides cysteine proteinases, equistatin was screened for the inhibition of two other classes of proteinases, aspartic proteinases (cathepsin D) and serine proteinase (trypsin). […] 500 μg equistatin was incubated with 5 μg of β-trypsin in 0.5 ml of 0.1 M Tris/HCl buffer pH 8.0, for 40 min at 37° C. Reaction was stopped by the addition of trifluoroacetic acid. The 9-trypsin digest of equistatin was separated by high performance liquid chromatography (Milton Roy Co.) using a reverse phase Vydac C18 column equilibrated with 5% acetonicril containing 0.1% (v/v) trifluoroacetic acid. Elution was performed using a linear gradient of 80% (v/v) acetonitrile containing 0.1% (v/v) trifluoroacetic acid. Absorbance was monitored at 215 nm. Two major peaks were obtained on the reverse-phase. HPLC (FIG. 9B). The molecular weights, estimated by the SDS PAGE under non-reducing conditions, were about 7,000 and 14,000 (FIG. 10). Determination of the N-termini of the both fragments allowed them to be located in the sequence of the equistatin molecule shown schematically in FIG. 11. […]

[3] = target: cathepsin D (Homo sapiens, UniProt P07339); assay: Incubation of equistatin with cathepsin D, reverse-phase HPLC (substrate test); type: biochemical; conditions: incubated in different molar concentrations and times
Protocol: In panel A the equistatin was incubated with cathepsin D in a final molar concentration of 2:1, and in panel B the equistatin was fragmented using 1% (w/w) β-trypsin. Identities of peaks were based on the N-terminal sequences.
as §1, with “10).” for “10). Determination of the N-termini of the both fragments allowed them to be located in the sequence of the equistatin molecule shown schematically in FIG. 11.”

[4] = system: western corn rootworm cysteine and aspartic protease activity; assay: Protease activity of western corn rootworm larval gut extract, FITC-hemoglobin; type: biochemical, Diabrotica virgifera; set-up: inhibition of protease activity: concentration or dose not given beside the values; conditions: for residual protease activity: recombinant equistatin; for inhibition of protease activity: western corn rootworm
Protocol: Adult western flower thrips (Frankliniella occidentalis) and leafmirer flies (Liriomyza trifolii) adult were harvested from a culture maintained on chrysanthemum plants and complete thrips and flies were homogenized in extraction on buffer (200 mM β-alanine-HCl, pH 3.5) in a volume of 5 times the weight of the insects. The buffer pH was at the previously determined pH optimum of protease activity towards hemoglobin. Final instar Colorado potato beetle larvae maintained on potato plants as described in example 5 were checked for gut aspartic protease activity by preparing a total gut extract in pH 3 buffer which is optimal for Colorado potato beetle aspartic proteases (200 mM glycine, pH 3). Guts were homogenized in 100 μl buffer per gut. Third instar western corn rootworm larvae maintained on corn roots were used to remove the guts. Ten guts were homogenized in 100 μl water and spinned twice to remove insoluble material. Two types of buffers were used in the enzymatic assay. One with a pH presumably favoring cysteine proteases (50 mM MES, pH 6.5; 0.6 mg/ml L-cysteine) and one for detecting aspartic proteases (200 mM glycine, pH 3). Supernatants were stored at −20° C.
2 μl gut extract was combined with 2 μl inhibitor (2 mM pepstatin in methanol, 4 mM E64 in water, 2 mg/ml recombinant equistatin in water. The concentration of the other proteinaceous inhibitors was not known exactly). Appropriate buffers were added to a final volume of 100 μl. After 15′ preincubation 20 μl substrate (5 mg/ml FITC-hemoglobin) was added and incubated for 30-45 min at 37 C.
Reaction was stopped by the addition of 100 μl 10% TCA. Tubes were centrifuged and 100 μl supernatant mixed with 100 μl 10 N NaOH was measured on a fluorimeter for the extent of hemoglobin hydrolysis. Measurements were done in duplicate on one (thrips, leafminer and western corn rootworm), or three (Colorado potato beetle) different gut extracts and varied by a maximum of +/−5%.

Sequence of cathepsin D (P07339 65-412, species assumed): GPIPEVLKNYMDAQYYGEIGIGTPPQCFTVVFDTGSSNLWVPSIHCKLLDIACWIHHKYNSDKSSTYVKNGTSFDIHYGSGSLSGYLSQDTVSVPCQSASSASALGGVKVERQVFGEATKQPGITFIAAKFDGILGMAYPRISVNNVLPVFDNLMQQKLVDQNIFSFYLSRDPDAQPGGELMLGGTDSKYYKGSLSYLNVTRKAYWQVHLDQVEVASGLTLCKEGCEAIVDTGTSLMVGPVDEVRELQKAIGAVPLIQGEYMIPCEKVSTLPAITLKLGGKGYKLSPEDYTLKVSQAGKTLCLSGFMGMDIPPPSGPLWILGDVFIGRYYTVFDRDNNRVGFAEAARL

B1: equistatin: cysteine/aspartic protease inhibitor from sea anemone Actinia equina with three type I repeated thyroglobulin domains; purified or recombinant from E. coli (protein)
chain: SLTKCQQLQASANSGLIGTYVPQCKETGEFEEKQCWGSTGYCWCVDEDGKEILGTKIRGSPDCSRRKAALTLCQMMQAIIVNVPGWCGPPSCKADGSFDEVQCCASNGECYCVDKKGKELEGTRQQGRPTCERHLSECEEARIKAHSNSLRVEMFVPECLEDGSYNPVQCWPSTGYCWCVDEGGVKVPGSDVRFKRPTC
modifications: left off: large carriers; small tags and cut ends
notes: purified or recombinant from E. coli
[1]
  molecules of papain inhibited by one molecule of equistatin: approximately 1 molecule
[2]
  inhibitory effect on trypsin (screen): observed only when it was reacting with cathepsin D
[3]
  degradation of equistatin by cathepsin D: No degradation products were observed
[4]; western corn rootworm pH 3
  residual protease activity: 2%
[4]; western corn rootworm pH 6.5
  residual protease activity: 7%
[4]; pH 3
  inhibition of protease activity: 98%
[4]; pH 6.5
  inhibition of protease activity: 93%
